Source: US20230374088A1 (GENERAL HOSPITAL, published 2023)

T1: Kif7-DM-GFP (1-543aa) (human, UniProt Q2M1P5 1-543)
T1 sequence: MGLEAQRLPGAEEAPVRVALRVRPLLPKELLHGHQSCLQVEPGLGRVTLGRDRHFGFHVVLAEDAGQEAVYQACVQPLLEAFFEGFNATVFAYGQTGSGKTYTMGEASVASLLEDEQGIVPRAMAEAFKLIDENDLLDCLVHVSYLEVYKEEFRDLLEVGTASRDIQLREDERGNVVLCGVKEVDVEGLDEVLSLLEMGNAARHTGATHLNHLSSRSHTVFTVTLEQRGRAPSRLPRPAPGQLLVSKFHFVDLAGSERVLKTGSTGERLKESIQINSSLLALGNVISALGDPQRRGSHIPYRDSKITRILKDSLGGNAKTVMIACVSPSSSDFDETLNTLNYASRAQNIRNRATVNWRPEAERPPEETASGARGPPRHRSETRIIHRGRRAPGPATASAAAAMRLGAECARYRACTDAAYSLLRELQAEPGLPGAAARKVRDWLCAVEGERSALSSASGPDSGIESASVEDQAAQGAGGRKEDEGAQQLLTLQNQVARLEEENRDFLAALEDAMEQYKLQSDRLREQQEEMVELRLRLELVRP

T2: Kif7M-Kif27CC chimera (human, UniProt Q86VH2 475-570)
T2 construct: range 475-570; not shown: HIS tag (used for BLI); GFP tag
T2 sequence: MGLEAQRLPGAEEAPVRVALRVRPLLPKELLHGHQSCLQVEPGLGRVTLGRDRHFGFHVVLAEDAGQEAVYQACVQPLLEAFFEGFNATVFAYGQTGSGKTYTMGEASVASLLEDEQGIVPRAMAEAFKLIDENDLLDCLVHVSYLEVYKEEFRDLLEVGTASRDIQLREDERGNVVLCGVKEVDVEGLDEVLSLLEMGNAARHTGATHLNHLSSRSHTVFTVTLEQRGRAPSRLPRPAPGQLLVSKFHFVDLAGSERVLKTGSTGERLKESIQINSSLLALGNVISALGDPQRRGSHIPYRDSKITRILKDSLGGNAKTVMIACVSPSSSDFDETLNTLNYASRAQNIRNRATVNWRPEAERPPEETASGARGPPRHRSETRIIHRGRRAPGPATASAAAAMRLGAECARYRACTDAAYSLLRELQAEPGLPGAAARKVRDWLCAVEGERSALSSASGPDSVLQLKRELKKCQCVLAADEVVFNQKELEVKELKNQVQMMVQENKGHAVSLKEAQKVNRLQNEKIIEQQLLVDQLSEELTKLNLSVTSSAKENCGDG

T3: Kif27M-Kif7CC chimera (human, UniProt Q86VH2 1-475)
T3 construct: range 1-475; not shown: HIS tag (used for BLI); GFP tag
T3 sequence: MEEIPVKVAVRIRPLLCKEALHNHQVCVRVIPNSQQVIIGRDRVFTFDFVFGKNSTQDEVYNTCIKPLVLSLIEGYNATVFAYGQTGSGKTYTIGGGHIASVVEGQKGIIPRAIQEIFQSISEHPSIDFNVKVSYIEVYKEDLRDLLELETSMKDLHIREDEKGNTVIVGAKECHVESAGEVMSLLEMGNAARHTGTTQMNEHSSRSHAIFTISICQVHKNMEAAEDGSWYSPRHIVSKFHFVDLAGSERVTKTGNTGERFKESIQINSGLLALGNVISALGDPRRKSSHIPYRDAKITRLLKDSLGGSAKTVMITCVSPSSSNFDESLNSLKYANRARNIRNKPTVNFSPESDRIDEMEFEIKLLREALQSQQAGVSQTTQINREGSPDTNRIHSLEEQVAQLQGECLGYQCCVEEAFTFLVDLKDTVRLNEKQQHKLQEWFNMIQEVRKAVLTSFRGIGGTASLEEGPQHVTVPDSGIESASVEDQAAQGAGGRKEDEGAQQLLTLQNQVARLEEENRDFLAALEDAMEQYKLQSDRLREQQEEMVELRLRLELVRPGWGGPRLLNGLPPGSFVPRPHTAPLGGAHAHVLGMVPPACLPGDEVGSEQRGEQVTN

T4: Gli2-ZF-GFP (human, UniProt P10070 418-604)
T4 construct: HRV-cleavable N-terminal 6xHis tag in the vector; not shown: C-terminal GFP tag
T4 sequence (looked up): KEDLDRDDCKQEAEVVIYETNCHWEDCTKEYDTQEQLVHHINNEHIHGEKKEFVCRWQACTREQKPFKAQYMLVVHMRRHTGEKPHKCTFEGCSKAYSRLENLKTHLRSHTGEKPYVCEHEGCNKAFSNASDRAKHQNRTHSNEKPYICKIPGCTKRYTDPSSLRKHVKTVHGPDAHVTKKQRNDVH

B1: Gli2 ZF1-3 (other, human, UniProt P10070 418-530, looked up)
chain: KEDLDRDDCKQEAEVVIYETNCHWEDCTKEYDTQEQLVHHINNEHIHGEKKEFVCRWQACTREQKPFKAQYMLVVHMRRHTGEKPHKCTFEGCSKAYSRLENLKTHLRSHTGE
notes: domain: zinc-fingers 1-3
B2: Gli2-ZF (418-604aa; zinc finger domain of Gli2) (other, human, UniProt P10070 418-604, looked up)
chain: T4 sequence (looked up)
notes: Expressed with an HRV-cleavable N-terminal 6xHis tag, cleaved 'if needed'; also called Gli-ZF
B3: GST-Kif7-CC (460-600aa) (other)
chain: PDSGIESASVEDQAAQGAGGRKEDEGAQQLLTLQNQVARLEEENRDFLAALEDAMEQYKLQSDRLREQQEEMVELRLRLELVRPGWGGPRLLNGLPPGSFVPRPHTAPLGGAHAHVLGMVPPACLPGDEVGSEQRGEQVTN
notes: held on the BLI sensor through the GST tag; also called Kif7 coiled-coil domain; coiled-coil dimerization domain fragment of Kif7; not shown: N-terminal GST tag (HRV protease cleavable, modified pGEX vector)
B4: GST-Kif7-CC-GFP (other)
chain: B3 chain
notes: also called GST-tagged Kif7-CC-GFP; not shown: N-terminal GST tag; GFP tag, C-terminal by the name

Columns and labels:
GST-Kif7-CC (460-600aa) [1] = biological target: B3; experiment: BLI with Gli2-ZF truncation, Hill fit
From the text: (§1) Data represent mean and standard deviation from three independent repeats. The plots of binding response versus Gli2-ZF concentration were fit to a Hill equation to determine equilibrium dissociation constants (Kd).
(§2) Third, we performed a series of site-directed mutagenesis experiments to further confirm the structural model and map the residues of Gli2-ZF and Kif7-CC required for complex formation. We created five Gli2-ZF truncations containing different groups of zinc-fingers (FIG. 3C; FIGS. 10A & 10B). […] This is similar to the Gli-DNA interaction where ZF2 and ZF3 are critical for making contacts with the phosphate backbone of DNA (Pavletich and Pabo, Science, 261, 1701-1707, 1993).
(§3) BLI experiments were performed in an Octet Red 96 instrument (ForteBio). To quantify Kif7-Gli2 binding, Experiments were performed in an assay buffer containing 40 mM TRIS pH7.3, 40 mM KCl, 40 μM ATP 1 mM MgCl₂, 0.12% tween and 0.5 mM TCEP. In the simplest assay, dimeric GST-Kif7-CC at a concentration of 120 nM is immobilized on an anti-GST biosensor chip. Unbound Kif7 is washed away with buffer, and the chips are then dipped into buffer with a range of Gli2-ZF concentrations from 0-1 μM to allow for association of the two proteins. After 300 seconds, they are then moved back into a well with just buffer to allow dissociation for 400 seconds. […]

Kif7-DM-GFP (1-543aa) [2] = biological target: T1, Kif7-DM-GFP (1-543aa); experiment: cell-based or functional assay
Kif7-DM-GFP (1-543aa) [3] = biological target: T1, Kif7-DM-GFP (1-543aa); experiment: BLI; HIS-tagged, GFP-tagged kinesin on anti-penta-HIS sensor, Gli2-ZF as analyte, Hill fit
Method: as §1
(§4) BLI experiments were performed in an Octet Red 96 instrument (ForteBio). To quantify Kif7-Gli2 binding, Experiments were performed in an assay buffer containing 40 mM TRIS pH7.3, 40 mM KCl, 40 μM ATP 1 mM MgCl₂, 0.12% tween and 0.5 mM TCEP. In the simplest assay, dimeric GST-Kif7-CC at a concentration of 120 nM is immobilized on an anti-GST biosensor chip. Unbound Kif7 is washed away with buffer, and the chips are then dipped into buffer with a range of Gli2-ZF concentrations from 0-1 μM to allow for association of the two proteins. After 300 seconds, they are then moved back into a well with just buffer to allow dissociation for 400 seconds. The equilibrium response of each sensor from three independent repeats at each Gli2 concentration were normalized and plotted against Gli2 concentration and fitted with a Hill function to obtain a Kₜ. […] The assays were also performed with HIS-tagged Kif7-DM and the Kif7-Kif27 chimeric proteins, requiring the use of an anti-penta-HIS biosensor chip, and referencing sensors to account for non-specific binding of Gli2 to the HIS sensor. A flipped assay, using HIS-tagged Gli2 on the sensor and a range of Kif7 concentrations in buffer, was also conducted.

Kif7M-Kif27CC chimera = biological target: T2, Kif7M-Kif27CC chimera; experiment: as above
Method: as §1, §4

Kif27M-Kif7CC chimera = biological target: T3, Kif27M-Kif7CC chimera; experiment: as above
Method: as §1, §4

GST-Kif7-CC (460-600aa) [4] = biological target: B3; experiment: BLI, GST-Kif7-CC on the sensor, Gli2-ZF titrated in the presence of 125 nM Gli2 target dsDNA (competitor); not an affinity of the free pair [panel A]
Method: as §4

Gli2-ZF-1-4 [5] = biological target: T5, Gli2-ZF-1-4 (human, UniProt P10070 418-562, limits assumed); experiment: BLI with Gli2-ZF truncation, Hill fit
T5 construct: domain: zinc-fingers 1-4
From the text: as §1, §2, §3

[6] = biological target: B2; experiment: BLI; GST-Kif7-CC on anti-GST sensor, Gli2-ZF as analyte, Hill fit of equilibrium response
From the text: Data represent mean and standard deviation from three independent repeats. The plots of binding response versus Gli2-ZF concentration were fit to a Hill equation to determine equilibrium dissociation constants (Kd). […] See also FIGS. 8A & 8B.
Single molecule fluorescence intensity and photobleaching analysis of the GFP-tagged proteins indicate that the GST-Kif7-CC is an obligate dimer and Gli2-ZF is a monomer (FIGS. 8C & 8D). […] We also verified that Kif7-CC-GFP and Gli2-ZF-GFP bind with similar affinity as the untagged proteins (FIG. 8E). Due to higher stability and yield of the Kif7-CC compared to the Kif7-SCC protein, we used the Kif7-CC for further biochemical analysis.
BLI experiments were performed in an Octet Red 96 instrument (ForteBio). To quantify Kif7-Gli2 binding, Experiments were performed in an assay buffer containing 40 mM TRIS pH7.3, 40 mM KCl, 40 μM ATP 1 mM MgCl₂, 0.12% tween and 0.5 mM TCEP. In the simplest assay, dimeric GST-Kif7-CC at a concentration of 120 nM is immobilized on an anti-GST biosensor chip. Unbound Kif7 is washed away with buffer, and the chips are then dipped into buffer with a range of Gli2-ZF concentrations from 0-1 μM to allow for association of the two proteins. After 300 seconds, they are then moved back into a well with just buffer to allow dissociation for 400 seconds.

Gli2-ZF-1-4 [7] = biological target: T5, Gli2-ZF-1-4; experiment: BLI with Gli2-ZF truncation, Hill fit (legend of FIG. 10C); legend of FIG. 10C; Hill fit, three repeats
Method: as §1
as §4, with “A flipped assay, using HIS-tagged Gli2 on the sensor and a range of Kif7 concentrations in buffer, was also conducted.” left out

[8] = biological target: B2; experiment: BLI, Hill fit
Method: as §1, with “(Kd). […] GFP-tagged versions of proteins show a consistent increase in Kd that is within error range.” for “(Kd).”
as §4, with “A flipped assay, using HIS-tagged Gli2 on the sensor and a range of Kif7 concentrations in buffer, was also conducted.” left out

Gli2-ZF-GFP = biological target: T4, Gli2-ZF-GFP; experiment: BLI, Hill fit
Method: as §1, with “(Kd). […] GFP-tagged versions of proteins show a consistent increase in Kd that is within error range.” for “(Kd).”
as §4, with “A flipped assay, using HIS-tagged Gli2 on the sensor and a range of Kif7 concentrations in buffer, was also conducted.” left out

Binder: B1
- Kd (GST-Kif7-CC (460-600aa) [1]): 160 nM

Binder: B2
- Kif7 fluorescence intensity on microtubules (TIRF) (Kif7-DM-GFP (1-543aa) [2]): > 5 fold
- Kd (Kif7-DM-GFP (1-543aa) [3]): 217 nM
- Kd (Kif7M-Kif27CC chimera): 397 nM
- Kd (Kif27M-Kif7CC chimera): 213 nM
- EC50 (read off the curve) (GST-Kif7-CC (460-600aa) [4]): ~200 nM

Binder: B3
- Kd (Gli2-ZF-1-4 [5]): 101 nM
- Kd [6]: 48 nM
- Kd (Gli2-ZF-1-4 [7]): 103 nM

Binder: B4
- Kd [8]: 65 nM
- Kd (Gli2-ZF-GFP): 57 nM
